Among the data in US20080118529A1 are factor of increase in tPA binding (protein exposed to DXS500k against protein in buffer only) values, retold here.

The experiment has as its target recombinant human collagen XVIII fragment endostatin (Entremed, Inc) (human) (UniProt P39060). The experiment can be described thus: ELISA; protein incubated with DXS500k or buffer immobilized, overlaid with tPA in 10 mM εACA.

Sequence of Tissue-type plasminogen activator (tPA, Actilyse, Boehringer-Ingelheim) (P00750 36-562 limits assumed): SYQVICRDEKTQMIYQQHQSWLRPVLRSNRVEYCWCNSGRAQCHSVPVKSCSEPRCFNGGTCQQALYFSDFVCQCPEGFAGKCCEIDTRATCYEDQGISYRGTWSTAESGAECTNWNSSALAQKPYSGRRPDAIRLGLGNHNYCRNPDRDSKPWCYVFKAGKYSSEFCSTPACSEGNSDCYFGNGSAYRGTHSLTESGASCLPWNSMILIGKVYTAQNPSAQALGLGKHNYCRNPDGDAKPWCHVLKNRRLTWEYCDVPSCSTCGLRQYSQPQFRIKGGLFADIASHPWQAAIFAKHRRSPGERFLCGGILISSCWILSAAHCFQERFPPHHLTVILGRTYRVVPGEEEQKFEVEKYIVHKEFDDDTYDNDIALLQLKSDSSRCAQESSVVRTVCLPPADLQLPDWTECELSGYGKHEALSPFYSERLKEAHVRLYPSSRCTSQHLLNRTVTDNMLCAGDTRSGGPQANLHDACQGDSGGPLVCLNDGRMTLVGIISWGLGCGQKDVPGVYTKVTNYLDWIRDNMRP

With “Tissue-type plasminogen activator (tPA, Actilyse, Boehringer-Ingelheim) (from UniProt P00750 36-562) (enzyme)”, the factor of increase in tPA binding (protein exposed to DXS500k against protein in buffer only) turned out to be 10.5 fold.
